Experimental findings from US7528109 (GEORGETOWN UNIVERSITY, dated 2009) are described below.

For test [1], the target named is T1, ALK (anaplastic lymphoma kinase) receptor, full length, expressed on cells (human, UniProt Q9UM73 19-1620).
T1 construct: U87MG cells carry endogenous human ALK; also called PTNR; PTN receptor
The experiment in a line: saturation binding of 35S-labeled PTN to 32D/ALK cells, non-linear regression. The protocol:
For this, ALK-negative mouse hematopoietic cell line 32D was used which grows in suspension culture and expressed the ALK protein in these cells. Also used was ^35S-labeled PTN from metabolic labeling experiments as a ligand for the receptor binding studies. Briefly, cell lysates were then prepared and a total of 3 mg of cellular proteins subjected to immunoprecipitation as described. (Souttou et al., 1997). For uncoupled antibodies, Sepharose-bound protein G (Gammabind plus, Amersham/Pharmacia) was used to precipitate immunocomplexes. Antibodies were anti-phosphotyrosine (agarose-coupled 4G10, 30 µl; UBI, Lake Placid NY), anti-PTNR (a cocktail of antibodies from Santa Cruz Biotechnology, Santa Cruz Calif. and from Accurate Chemicals, Westburg N.Y.), anti-IRS-1 (3 µg of rabbit IgG). Resulting precipitates were analyzed by SDS polyacrylamide gel electrophoresis. Experimental procedures for immunoblots for phosphotyrosine, IRS-1 (anti-IRS-1, Transduction Laboratories, Lexington Ky.), PLC-gamma (anti-PLC-gamma, UBI)and PI3-kinase (UBI) using unlabelled cells as described (Souttou et al., 1997).
Saturation binding of radiolabeled PTN to 32D/ALK (filled symbols) and 32D/control cells (open symbols) (FIG. 2b). Data were pooled from two independent experiments with triplicate repeat measurements of data points. […]

The target in test [2] is T1, ALK (anaplastic lymphoma kinase) …. The experiment in a line: saturation binding of 35S-labeled PTN to 32D/ALK cells.

T1 sequence (Q9UM73 other isoform, or with tags, fused parts or gaps limits assumed): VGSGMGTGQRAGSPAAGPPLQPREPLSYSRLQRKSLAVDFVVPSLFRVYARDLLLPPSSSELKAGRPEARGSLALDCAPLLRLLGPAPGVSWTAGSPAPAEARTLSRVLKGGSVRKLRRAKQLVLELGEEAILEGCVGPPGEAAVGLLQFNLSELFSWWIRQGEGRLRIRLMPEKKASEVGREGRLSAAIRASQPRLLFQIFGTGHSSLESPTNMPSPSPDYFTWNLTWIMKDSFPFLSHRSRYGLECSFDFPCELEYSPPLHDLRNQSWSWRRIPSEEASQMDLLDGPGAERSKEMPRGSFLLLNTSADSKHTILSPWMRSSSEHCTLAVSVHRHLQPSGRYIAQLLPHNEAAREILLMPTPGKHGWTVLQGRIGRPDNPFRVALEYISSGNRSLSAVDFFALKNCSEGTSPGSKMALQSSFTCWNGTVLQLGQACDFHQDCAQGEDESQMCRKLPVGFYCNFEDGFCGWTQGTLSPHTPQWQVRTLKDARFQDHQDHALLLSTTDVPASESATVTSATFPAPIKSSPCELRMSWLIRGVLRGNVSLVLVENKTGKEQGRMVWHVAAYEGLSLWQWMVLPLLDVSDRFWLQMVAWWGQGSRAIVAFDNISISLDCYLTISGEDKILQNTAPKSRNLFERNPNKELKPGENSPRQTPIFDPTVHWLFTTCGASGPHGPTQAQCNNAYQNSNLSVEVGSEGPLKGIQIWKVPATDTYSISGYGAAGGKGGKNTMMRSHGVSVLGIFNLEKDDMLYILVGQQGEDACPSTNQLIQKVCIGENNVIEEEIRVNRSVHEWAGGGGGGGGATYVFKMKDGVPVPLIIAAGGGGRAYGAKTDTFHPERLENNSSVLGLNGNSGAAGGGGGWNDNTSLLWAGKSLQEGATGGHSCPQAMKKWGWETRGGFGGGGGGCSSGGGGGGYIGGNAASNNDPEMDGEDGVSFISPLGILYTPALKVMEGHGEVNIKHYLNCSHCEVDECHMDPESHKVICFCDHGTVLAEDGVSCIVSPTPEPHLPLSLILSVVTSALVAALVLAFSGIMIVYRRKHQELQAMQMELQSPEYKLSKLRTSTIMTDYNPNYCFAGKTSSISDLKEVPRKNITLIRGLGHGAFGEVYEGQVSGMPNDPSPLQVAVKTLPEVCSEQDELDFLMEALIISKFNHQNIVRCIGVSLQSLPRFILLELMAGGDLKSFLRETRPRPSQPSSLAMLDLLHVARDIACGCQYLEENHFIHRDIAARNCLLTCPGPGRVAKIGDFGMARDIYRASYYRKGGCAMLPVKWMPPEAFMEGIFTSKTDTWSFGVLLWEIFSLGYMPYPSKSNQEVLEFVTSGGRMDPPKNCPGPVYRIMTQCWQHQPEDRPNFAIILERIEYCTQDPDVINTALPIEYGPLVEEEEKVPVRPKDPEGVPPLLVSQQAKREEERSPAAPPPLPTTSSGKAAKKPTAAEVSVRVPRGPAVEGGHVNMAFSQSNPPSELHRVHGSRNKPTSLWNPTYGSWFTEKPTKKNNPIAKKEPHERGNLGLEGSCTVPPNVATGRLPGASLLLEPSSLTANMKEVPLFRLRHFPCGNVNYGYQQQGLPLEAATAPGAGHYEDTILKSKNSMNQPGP

B1: pleiotrophin (PTN), purified from the culture supernatant of cells transfected with the human PTN cDNA (ligand, UniProt P21246 33-168, looked up)
chain: GKKEKPEKKVKKSDCGEWQWSVCVPTSGDCGLGTREGTRTGAECKQTMKTQRCKIPCNWKKQFGAECKYQFQAWGECDLNTALKTRTGSLKRALHNAECQKTVTISKPCGKLTKPKPQAESKKKKKEGKKQEKMLD
notes: also called PTN ligand; radiolabeled PTN
For the molecule B1, the dissociation constant Kd in test [1] is 0.032 nM; in test [2] it was 0.03 to 0.04 nM.

By Kd is commonly meant a measure of binding affinity in units of concentration. A low value points to a tighter complex.
